These results are taken from US20240270857A1 (CHIA TAI TIANQING PHARMACEUTICAL GROUP, published 2024).

For experiment [1], the target named is T1, CynoIL36R-ECD mFc recombinant protein (cynomolgus monkey).
T1 construct: Made in ExpiCHO, purified on Protein A; also called cynomolgus IL-36R extracellular region with mouse antibody heavy chain Fc
T1 chain: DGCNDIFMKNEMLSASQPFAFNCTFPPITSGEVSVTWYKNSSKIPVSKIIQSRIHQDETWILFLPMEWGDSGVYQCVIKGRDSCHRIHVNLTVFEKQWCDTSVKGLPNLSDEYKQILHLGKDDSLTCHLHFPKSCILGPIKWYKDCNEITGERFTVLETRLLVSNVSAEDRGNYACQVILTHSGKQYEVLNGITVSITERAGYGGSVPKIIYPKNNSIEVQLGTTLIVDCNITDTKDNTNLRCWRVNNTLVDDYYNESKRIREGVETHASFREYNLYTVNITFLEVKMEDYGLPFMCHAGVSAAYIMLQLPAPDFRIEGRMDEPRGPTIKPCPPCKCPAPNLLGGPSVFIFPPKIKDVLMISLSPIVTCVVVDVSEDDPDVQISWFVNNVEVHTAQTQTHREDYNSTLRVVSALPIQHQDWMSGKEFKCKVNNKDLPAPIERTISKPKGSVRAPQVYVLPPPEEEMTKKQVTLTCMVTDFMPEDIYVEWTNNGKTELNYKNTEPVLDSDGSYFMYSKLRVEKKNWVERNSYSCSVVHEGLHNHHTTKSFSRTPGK
The experiment in a line: BLI (ForteBio Octet), antibody on ProA sensor, 1:1 model. The method, then:
The affinity of anti-IL-36R antibodies to CynoIL36R-ECD mFc and human IL-1Rrp2/IL-IR6 protein, His Tag (ACROBiosystems, IL2-H52H6) was measured by a ForteBio molecular interaction instrument. […] And then the biosensor was used to bind CynoIL36R-ECD mFc or human IL-1Rrp2/IL-1R6 protein, His Tag which was diluted by a gradient (the initial concentration was 200 nM, 2-fold gradient dilution), the response signals were detected in real time using a Fortebio molecular interaction instrument (SARTORIUS, octet red 96e), and association and dissociation curves were obtained. After the completion of dissociation in each cycle, the biosensor was regenerated for the next capture; the procedure was repeated until the affinity of the different anti-IL-36R antibodies for IL-36R was determined. The resulting data were analyzed by Fortebio Data Analysis 11.0 software in a 1:1 (Langmuir) binding model to determine kₐ (kₒₙ) and kd (koff) values, and the dissociation constant KD was calculated by KD=kd/kₐ. The detection method essentially followed the manufacturer's recommendations, and more information could be found at www.fortebio.com.
Affinity, binding and blocking assays for humanized antibodies hz72C1-1.1, hz72C1-1.2, hz72C1-1.3, hz72C1-2.1, hz72C1-2.2 and hz72C1-2.3 as well as hz84C4-1.1, hz84C4-1.2, hz84C4-1.3, hz84C4-1.4, hz84C4-1.5, hz84C4-2.1, hz84C4-2.2, hz84C4-2.3, hz84C4-2.4 and hz84C4-2.5 were performed according to the methods of Example 4, Example 5. Example 6, Example 7 and Example 8.
A general note: Biolayer interferometry detects binding as a change in optical thickness at a sensor tip.

Experiment [2] deals with T2, Human IL-1Rrp2/IL-1R6 protein, His Tag (ACROBiosystems, IL2-H52H6) (human, UniProt Q9HB29 20-335).
T2 construct: Bought protein; the soluble protein is likely only the extracellular part; also called hIL-36R; human IL36R antigen; not shown: His tag
T2 sequence: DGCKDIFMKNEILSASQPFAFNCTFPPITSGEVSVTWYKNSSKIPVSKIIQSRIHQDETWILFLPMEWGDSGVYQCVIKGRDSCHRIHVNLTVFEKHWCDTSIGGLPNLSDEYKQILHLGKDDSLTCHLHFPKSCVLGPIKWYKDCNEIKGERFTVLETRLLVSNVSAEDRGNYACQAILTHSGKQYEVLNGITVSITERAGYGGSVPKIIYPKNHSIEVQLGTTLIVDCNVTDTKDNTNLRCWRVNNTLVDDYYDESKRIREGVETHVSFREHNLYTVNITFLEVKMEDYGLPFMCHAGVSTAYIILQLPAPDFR
The experiment in a line: ELISA, plate coated with human IL-1Rrp2/IL-1R6 His Tag, HRP-protein A/G, OD450. The method, then:
The binding activity of anti-IL-36R antibodies to IL-36R was analyzed by ELISA using human IL-1Rrp2/IL-1R6 protein, His Tag (ACROBiosystems, IL2-H52H6) and CynoIL36R-ECD mFc (for detection of chimeric and humanized antibodies), and hIL36R-ECD hFc and CynoIL36R-ECD hFc protein (for detection of hybridoma antibodies) as antigens. A 96-well plate (Costar, 9018) was coated with 2 μg/mL antigen at 100 μL/well and incubated overnight at 4° C. After the 96-well plate was washed with a washing buffer (PBS containing 0.05% v/v Tween 20), a blocking buffer (PBS containing 2% bovine serum albumin) was added for blocking at 37° C. for 2 h. After the 96-well plate was washed with the washing buffer, 100 μL of the gradient diluted anti-IL-36R antibody of the present disclosure or the reference antibody BI655130 (the initial concentration of the antibody was 66 nM, 4-fold gradient dilution) was added to each well, and the plate was incubated at room temperature for 1 h. After the 96-well plate was washed with the washing buffer, 100 μL of horseradish peroxidase-conjugated recombinant protein A/G (TheroScientific, 32490) was added to each well, and the plate was incubated at room temperature for 1 h. After the 96-well plate was washed with the washing buffer, 100 μL of a TMB solution (Thermo, 00-4201-56) was added to each well, and the plate was incubated at room temperature for 2 min. Finally, 100 μL of a stop solution (2 N H₂SO₄) was added to each well to stop the reaction. Absorbance was read at 450 nm using a microplate reader (PE, Envision), the resulting data was analyzed using GraphPad Prism, and EC₅₀ was calculated. Binding EC₅₀ of the chimeric anti-IL-36R antibodies to hIL-36R in an ELISA assay is shown in FIG. 1. and binding EC₅₀ of the chimeric anti-IL-36R antibodies to CynoIL-36R in an ELISA assay is shown in FIG. 2. The binding of BI655130 is shown as a control, and the binding of IgG4 is shown as a negative control.

B1: hz72C1-1.1 (antibody, human IgG4 S228P, kappa)
heavy: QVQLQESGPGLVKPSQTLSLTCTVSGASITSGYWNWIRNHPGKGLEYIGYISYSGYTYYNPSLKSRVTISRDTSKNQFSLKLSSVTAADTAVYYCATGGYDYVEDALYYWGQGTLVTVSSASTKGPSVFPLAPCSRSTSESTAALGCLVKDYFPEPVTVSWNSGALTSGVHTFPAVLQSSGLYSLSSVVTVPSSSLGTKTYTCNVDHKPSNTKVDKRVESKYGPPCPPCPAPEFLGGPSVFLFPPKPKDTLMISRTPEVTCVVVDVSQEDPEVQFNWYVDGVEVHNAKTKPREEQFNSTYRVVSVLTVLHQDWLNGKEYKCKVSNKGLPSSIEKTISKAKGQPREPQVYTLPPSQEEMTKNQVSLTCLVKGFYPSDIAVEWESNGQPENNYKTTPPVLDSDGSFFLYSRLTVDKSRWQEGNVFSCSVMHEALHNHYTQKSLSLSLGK
light: DIQMTQSPSSLSASVGDRVTITCRASSNVRYMYWYQQKPGKAPKLWIYLTSNLASGVPSRFSGSGSGTSYTLTISSLQPEDFATYYCQQFTTSPYTFGQGTKLEIKRTVAAPSVFIFPPSDEQLKSGTASVVCLLNNFYPREAKVQWKVDNALQSGNSQESVTEQDSKDSTYSLSSTLTLSKADYEKHKVYACEVTHQGLSSPVTKSFNRGEC
notes: Humanized, human IgG4 / kappa; also called humanized 72C1 antibody 1.1
By Kd is commonly meant the constant that tells how readily two partners part at equilibrium. The koff is a measure of how fast the partners let go of each other. A word on the kon: it is a measure of how fast the partners come together. Regarding B1, in experiment [1], the Kd is 0.66 nM, the koff came to 1.51e-05 s⁻¹ and the kon worked out at 22800 M⁻¹ s⁻¹.

B2: hz72C1-1.3 (antibody, human IgG4 S228P, kappa)
heavy: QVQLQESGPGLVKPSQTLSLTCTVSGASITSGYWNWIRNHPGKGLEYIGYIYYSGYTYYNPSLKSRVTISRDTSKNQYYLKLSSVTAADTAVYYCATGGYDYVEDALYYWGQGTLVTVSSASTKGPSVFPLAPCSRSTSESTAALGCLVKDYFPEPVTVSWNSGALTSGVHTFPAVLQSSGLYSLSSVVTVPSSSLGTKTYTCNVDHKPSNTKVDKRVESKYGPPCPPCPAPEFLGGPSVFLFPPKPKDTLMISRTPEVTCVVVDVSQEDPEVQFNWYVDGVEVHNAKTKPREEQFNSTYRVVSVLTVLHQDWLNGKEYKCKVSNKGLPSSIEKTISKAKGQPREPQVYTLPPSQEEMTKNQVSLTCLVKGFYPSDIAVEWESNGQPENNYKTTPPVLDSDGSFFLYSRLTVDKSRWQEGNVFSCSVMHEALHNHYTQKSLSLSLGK
light: DIQMTQSPSSLSASVGDRVTITCRASSNVRYMYWYQQKPGKAPKLWIYLTSNLASGVPSRFSGSGSGTSYTLTISSLQPEDFATYYCQQFTTSPYTFGQGTKLEIKRTVAAPSVFIFPPSDEQLKSGTASVVCLLNNFYPREAKVQWKVDNALQSGNSQESVTEQDSKDSTYSLSSTLTLSKADYEKHKVYACEVTHQGLSSPVTKSFNRGEC
notes: Humanized, human IgG4 / kappa
Consider B2, for which, in experiment [1], the Kd stood at 0.445 nM, the off-rate constant (koff) worked out at 9.42e-06 s⁻¹ and the kon came to 21200 M⁻¹ s⁻¹.

B3: chimeric 84C4 antibody (antibody, human IgG4 S228P, kappa)
heavy: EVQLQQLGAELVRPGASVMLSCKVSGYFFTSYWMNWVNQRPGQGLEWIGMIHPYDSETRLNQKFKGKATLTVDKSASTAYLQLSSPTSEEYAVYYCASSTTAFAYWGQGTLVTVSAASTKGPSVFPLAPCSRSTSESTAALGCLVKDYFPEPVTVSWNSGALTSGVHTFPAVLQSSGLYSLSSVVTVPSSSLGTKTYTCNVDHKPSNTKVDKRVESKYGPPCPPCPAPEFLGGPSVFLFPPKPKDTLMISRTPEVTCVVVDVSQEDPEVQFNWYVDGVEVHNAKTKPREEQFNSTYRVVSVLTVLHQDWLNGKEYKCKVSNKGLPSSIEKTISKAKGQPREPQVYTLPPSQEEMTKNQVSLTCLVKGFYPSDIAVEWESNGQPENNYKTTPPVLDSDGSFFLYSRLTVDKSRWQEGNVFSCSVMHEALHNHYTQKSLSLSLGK
light: DILMTQSPSSLSASLGERVSLTCRASQDIGNALNWLQQAPDGTIKRLIYATSSLDPGVPKRFSGSRSGSDYSLTISSLASEDFVYYYCLQYASSPYTFGGGTKLEIKRTVAAPSVFIFPPSDEQLKSGTASVVCLLNNFYPREAKVQWKVDNALQSGNSQESVTEQDSKDSTYSLSSTLTLSKADYEKHKVYACEVTHQGLSSPVTKSFNRGEC
notes: Mouse variable regions on human IgG4 / kappa; also called xi84C4
What is called EC50 is the concentration that produces a half-maximal response. Read a high EC50 as a need for much substance. Consider B3, for which the midpoint of the response in experiment [2], the EC50, lay at 0.97 nM. That is a sub-nanomolar value.

B4: chimeric 72C1 antibody (antibody, human IgG4 S228P, kappa)
heavy: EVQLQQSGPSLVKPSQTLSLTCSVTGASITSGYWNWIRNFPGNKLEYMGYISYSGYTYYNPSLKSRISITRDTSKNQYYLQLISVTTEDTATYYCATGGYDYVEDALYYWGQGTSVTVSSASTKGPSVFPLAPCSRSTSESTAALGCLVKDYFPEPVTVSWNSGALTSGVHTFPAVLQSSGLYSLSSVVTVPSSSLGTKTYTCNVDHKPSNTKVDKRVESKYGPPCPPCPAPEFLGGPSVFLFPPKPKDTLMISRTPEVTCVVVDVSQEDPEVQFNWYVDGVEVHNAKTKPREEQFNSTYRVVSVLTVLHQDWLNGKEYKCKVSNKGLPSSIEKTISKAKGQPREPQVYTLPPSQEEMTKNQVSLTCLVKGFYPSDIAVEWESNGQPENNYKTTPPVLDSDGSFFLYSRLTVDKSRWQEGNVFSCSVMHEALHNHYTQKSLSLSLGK
light: EILLTQSPAIMSATLGEKVTMSCRASSNVRYMYWYQLKSGASPKLWIYLTSNLASGVPARFSGSGSGTSYSLTISSVEAEDAATYFCQQFTTSPYTFGGGTKLEIKRTVAAPSVFIFPPSDEQLKSGTASVVCLLNNFYPREAKVQWKVDNALQSGNSQESVTEQDSKDSTYSLSSTLTLSKADYEKHKVYACEVTHQGLSSPVTKSFNRGEC
notes: Mouse variable regions on human IgG4 / kappa; also called xi72C1
On to B4, for which, in experiment [1], the Kd came to 0.352 nM, the koff is 9.04e-06 s⁻¹ and the kon turned out to be 25700 M⁻¹ s⁻¹. This molecule also showed an EC50 in experiment [2] of 2.62 nM.

B5: BI655130 (antibody, human IgG1, kappa, L234A L235A)
heavy: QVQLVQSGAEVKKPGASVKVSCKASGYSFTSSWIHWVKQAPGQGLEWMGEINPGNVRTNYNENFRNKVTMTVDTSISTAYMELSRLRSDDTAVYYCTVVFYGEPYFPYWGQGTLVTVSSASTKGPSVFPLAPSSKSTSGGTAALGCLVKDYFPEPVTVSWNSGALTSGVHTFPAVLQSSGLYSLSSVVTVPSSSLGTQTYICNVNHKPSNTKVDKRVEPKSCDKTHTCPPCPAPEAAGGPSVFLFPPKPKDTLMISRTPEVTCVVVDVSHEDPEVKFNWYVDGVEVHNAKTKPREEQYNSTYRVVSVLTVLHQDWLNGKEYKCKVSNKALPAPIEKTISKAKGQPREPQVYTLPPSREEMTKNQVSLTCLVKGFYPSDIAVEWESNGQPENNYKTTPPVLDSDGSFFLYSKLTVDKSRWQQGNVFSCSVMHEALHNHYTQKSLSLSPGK
light: QIVLTQSPGTLSLSPGERATMTCTASSSVSSSYFHWYQQKPGQAPRLWIYRTSRLASGVPDRFSGSGSGTDFTLTISRLEPEDAATYYCHQFHRSPLTFGAGTKLEIKRTVAAPSVFIFPPSDEQLKSGTASVVCLLNNFYPREAKVQWKVDNALQSGNSQESVTEQDSKDSTYSLSSTLTLSKADYEKHKVYACEVTHQGLSSPVTKSFNRGEC
notes: also called Spesolimab
For the molecule B5, in experiment [1], the Kd was 2.46 nM, the koff came to 7.26e-05 s⁻¹ and the kon was 29500 M⁻¹ s⁻¹. The same molecule gave an EC50 in experiment [2] of 0.761 nM.
